Results: US20240117030A1 (Pfizer, published 2024)
Like-named read-outs stand apart in the source and are kept apart here.

What was measured:
recombinant human IL-12 [1] = biological target: T1, recombinant human IL-12 (human, UniProt P29459 23-219; P29460 23-328); assay: cell-based or functional assay
T1 sequence (looked up) 1: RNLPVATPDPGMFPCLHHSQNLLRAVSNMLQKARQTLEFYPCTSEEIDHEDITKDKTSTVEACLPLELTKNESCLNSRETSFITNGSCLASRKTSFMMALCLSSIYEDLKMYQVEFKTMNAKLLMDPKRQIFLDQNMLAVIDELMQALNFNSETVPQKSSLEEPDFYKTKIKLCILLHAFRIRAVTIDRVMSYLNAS
T1 sequence (looked up) 2: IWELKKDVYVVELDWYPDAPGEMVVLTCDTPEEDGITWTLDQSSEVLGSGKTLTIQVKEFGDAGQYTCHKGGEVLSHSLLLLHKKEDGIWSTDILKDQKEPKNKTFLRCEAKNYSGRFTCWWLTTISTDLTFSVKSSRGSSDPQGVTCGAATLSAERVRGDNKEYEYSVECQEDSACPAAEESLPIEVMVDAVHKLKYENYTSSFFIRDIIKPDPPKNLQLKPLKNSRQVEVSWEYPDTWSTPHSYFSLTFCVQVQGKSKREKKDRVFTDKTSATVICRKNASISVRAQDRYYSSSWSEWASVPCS

recombinant human IL-23 [2] = biological target: T2, recombinant human IL-23 (human, UniProt Q9NPF7 20-189; P29460 23-328); assay: cell-based or functional assay
T2 sequence (looked up) 1: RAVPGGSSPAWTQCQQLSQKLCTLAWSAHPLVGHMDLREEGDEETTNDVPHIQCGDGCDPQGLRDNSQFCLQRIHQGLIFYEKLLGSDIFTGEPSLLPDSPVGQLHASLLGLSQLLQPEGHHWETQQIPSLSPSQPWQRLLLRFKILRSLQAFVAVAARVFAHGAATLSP
T2 sequence (looked up) 2: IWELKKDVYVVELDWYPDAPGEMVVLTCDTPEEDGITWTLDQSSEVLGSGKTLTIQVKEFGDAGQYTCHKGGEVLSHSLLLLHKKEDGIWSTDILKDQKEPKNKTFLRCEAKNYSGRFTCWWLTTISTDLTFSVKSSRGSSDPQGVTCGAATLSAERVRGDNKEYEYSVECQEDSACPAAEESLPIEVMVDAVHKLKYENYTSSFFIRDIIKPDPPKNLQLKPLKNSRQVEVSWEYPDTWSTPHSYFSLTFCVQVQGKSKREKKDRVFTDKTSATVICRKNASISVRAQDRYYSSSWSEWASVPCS

recombinant human IL-12 [3] = biological target: T1, recombinant human IL-12; assay: cell-based or functional assay; remark: listed apart in the source
recombinant human IL-23 [4] = biological target: T2, recombinant human IL-23; assay: cell-based or functional assay; remark: listed apart in the source
[5] = biological target: T3, recombinant human IL-33 (R&D Systems 3625-IL), reduced with DTT (human, UniProt O95760 112-270, limits assumed); assay: cell-based or functional assay
T3 sequence (looked up): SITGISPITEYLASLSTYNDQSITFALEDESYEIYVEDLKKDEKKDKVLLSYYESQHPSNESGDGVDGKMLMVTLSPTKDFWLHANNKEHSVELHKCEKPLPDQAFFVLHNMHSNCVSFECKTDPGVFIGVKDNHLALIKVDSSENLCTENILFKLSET

[6] = biological target: T3, recombinant human IL-33 (R&D Systems …); assay: cell-based or functional assay; remark: listed apart in the source
[7] = biological target: T4, biotinylated human IL-33 wild-type (WT), reduced with 3 mM DTT (human, UniProt O95760 112-270, limits assumed, biotinylated (site not stated)); assay: KinExA solution affinity, fixed antigen format, global fit
T4 sequence (looked up): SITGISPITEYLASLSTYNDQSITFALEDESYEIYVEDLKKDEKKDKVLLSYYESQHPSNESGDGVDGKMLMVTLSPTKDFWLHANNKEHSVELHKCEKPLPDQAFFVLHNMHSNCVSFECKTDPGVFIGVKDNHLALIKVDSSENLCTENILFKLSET

recombinant human IL-33 = biological target: T5, recombinant human IL-33 (human, UniProt O95760 112-270, limits assumed); assay: cell-based or functional assay
T5 sequence (looked up): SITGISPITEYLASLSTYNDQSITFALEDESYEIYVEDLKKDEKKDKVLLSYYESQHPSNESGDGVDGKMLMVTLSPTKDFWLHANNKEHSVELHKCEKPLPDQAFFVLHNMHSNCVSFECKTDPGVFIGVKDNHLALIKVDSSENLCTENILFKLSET

IL-33 mm2 = biological target: T6, IL-33 mm2 (human, UniProt O95760 112-270, limits assumed); assay: cell-based or functional assay
T6 sequence (looked up): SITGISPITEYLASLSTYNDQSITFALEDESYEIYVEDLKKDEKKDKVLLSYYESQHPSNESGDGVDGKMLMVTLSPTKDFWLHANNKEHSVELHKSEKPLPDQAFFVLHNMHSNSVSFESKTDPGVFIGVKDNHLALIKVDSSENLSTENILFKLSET

B1: p40-0003 (antibody, human IgG1, kappa, V domains shown)
VH: EVQLVQSGAEVKKPGESLKISCKGSGYSFTTYWLGWVRQMPGKGLDWIGIMSPVDSDIRYSPSFQGQVTMSVDKSITTAYLQWNSLKASDTAMYYCARRRPGQGYFDFWGQGTLVTVSS
VL: DIQMTQSPSSLSASVGDRVTITCRASQGISSWLAWYQQKPEKAPKSLIYAASSLQSGVPSRFSGSGSGTDFTLTISSLQPEDFATYYCQQYNIYPYTFGQGTKLEIKR
IC50 (mean), Kit-225 assay, IL-12 induced phospho-STAT4 (recombinant human IL-12 [1]): 155 pM | IC50 (mean), Whole blood assay, IL-12 induced phospho-STAT4 (recombinant human IL-12 [1]): 262 pM | IC50 (mean), Kit-225 assay, IL-23 induced phospho-STAT3 (recombinant human IL-23 [2]): 850 pM | IC50 (mean), Whole blood assay, IL-23 induced phospho-STAT3 (recombinant human IL-23 [2]): 4510 pM | IC50 (mean), Kit-225 assay, IL-12 induced phospho-STAT4 (recombinant human IL-12 [3]): 155 pM | IC50 (mean), Whole blood assay, IL-12 induced phospho-STAT4 (recombinant human IL-12 [3]): 262 pM | IC50 (mean), Kit-225 assay, IL-23 induced phospho-STAT3 (recombinant human IL-23 [4]): 850 pM | IC50 (mean), Whole blood assay, IL-23 induced phospho-STAT3 (recombinant human IL-23 [4]): 4510 pM

B2: IL33-0726 (antibody, human IgG1, kappa, V domains shown)
VH: EVQLVESGGGLVQPGGSLRLSCAASGFTFSSYWMYWVRQAPGKGLEWVAAITPNAGEDYYPESVKGRFTISRDNAKNSLYLQMNSLRAEDTAVYYCARGQYYYTKYSLGYWGQGTLVTVSS
VL: DIQMTQSPSSLSASVGDRVTITCRASQPIHNHLDWYQQKPGKAPKLLIYFGKNLQEGVPSRFSGSGSGTDFTLTISSLQPEDFATYYCFQYKKGWSFGGGTKVEIKR
notes: also called IL33-0726 IgG; IL13433-0726
IC50 [pM] versus human reduced IL-33 (R&D), Experiment 2 (HEK-Blue SEAP) [5]: 6 pM | IC50 [nM] versus reduced human IL-33 (R&D), IC50 (AVE) [6]: 0.008 nM | Kd [7]: < 0.237 pM

B3: IL33-158LS (antibody, V domains shown)
VH: EVQLVESGGGLVQPGGSLRLSCAASGFTFSSYWMYWVRQAPGKGLEWVAAITPNAGEDYYPESVKGRFTISRDNAKNSLYLQMNSLRAEDTAVYYCARGHYYYTSYSLGYWGQGTLVTVSS
VL: DIQMTQSPSSLSASVGDRVTITCKASQNINKHLDWYQQKPGKAPKLLIYFTNNLQTGVPSRFSGSGSGTDFTLTISSLQPEDFATYYCFQYNQGWTFGGGTKVEIK
IC50 (mean), HEK-Blue IL-33 SEAP (recombinant human IL-33): 56.2 pM | IC50 (mean), IFNg Whole Blood (IL-12 plus IL-33 mm2-Cys) (IL-33 mm2): 16.2 pM
